Results as given in patent publication US20250092158A1.

Target: human Quiescin Sulfhydryl Oxidase 1 (QSOX1) (human) (UniProt O00391)
Experiment: oxygen electrode assay of QSOX1 (25 nM) on DTT (200 uM), antibody varied, Morrison tight-binding fit

Chain of UniProt O00391 (O00391 33-546): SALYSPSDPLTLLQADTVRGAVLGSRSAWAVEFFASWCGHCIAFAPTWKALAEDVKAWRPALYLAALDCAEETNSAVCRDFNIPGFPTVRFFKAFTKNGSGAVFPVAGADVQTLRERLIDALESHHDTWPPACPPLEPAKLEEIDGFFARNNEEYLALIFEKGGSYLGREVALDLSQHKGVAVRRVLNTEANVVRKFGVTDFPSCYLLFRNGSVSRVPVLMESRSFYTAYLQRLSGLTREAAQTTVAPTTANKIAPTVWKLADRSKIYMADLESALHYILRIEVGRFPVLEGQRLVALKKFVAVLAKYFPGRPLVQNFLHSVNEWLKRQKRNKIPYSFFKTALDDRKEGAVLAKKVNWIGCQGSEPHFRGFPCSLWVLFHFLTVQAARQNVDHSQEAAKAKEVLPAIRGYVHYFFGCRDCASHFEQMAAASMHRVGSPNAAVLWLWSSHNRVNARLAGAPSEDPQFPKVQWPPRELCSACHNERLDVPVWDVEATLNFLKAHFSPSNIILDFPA

Row | Binder | Ki [nM]
1 | humanized anti-QSOX1 antibody H3K4 (antibody, human IgG1, kappa, V domains shown) VH: QVQLVESGGGLVQPGGSLRLSCSVSGFSLTGYGVNWVRQAPGKGLEWLGMIWGDGRTDYADSVKGRFTISRDNSKNTLYLQMSSLRAEDTAVYYCASDYYGSGSFAYWGQGTLVTVSS VL: DIVMTQSPDSLAVSLGERATINCKASQDVSTAVAWYQQKPGQPPKLLIHSASYRYTGVPDRFSGSGSGTDFTLTISSLQAEDVAVYYCQQHYSIPLTFGQGTRLEIKR | < 1
2 | humanized anti-QSOX1 antibody H2bK4 (antibody, human IgG1, kappa, V domains shown) VH: QITLKESGPTLVKPTQTLTLTCTVSGFSLTGYGVNWIRQPPGKALEWLGMIWGDGRTDYSPSLKSRLTITKDTSKNQVVLTMTNMDPVDTATYYCASDYYGSGSFAYWGRGTLVTVSS VL: DIVMTQSPDSLAVSLGERATINCKASQDVSTAVAWYQQKPGQPPKLLIHSASYRYTGVPDRFSGSGSGTDFTLTISSLQAEDVAVYYCQQHYSIPLTFGQGTRLEIKR | < 1
3 | humanized anti-QSOX1 antibody H3newK2 (antibody, human IgG1, kappa, V domains shown) VH: QVQLVESGGGLVQPGRSLRLSCTVSGFSLTGYGVNWFRQAPGKGLEWLGMIWGDGRTDYTASVKGRFTISRDGSKSIAYLQMNSLKTEDTAVYYCASDYYGSGSFAYWGQGTLVTVSS VL: DIVMTQTPLSLSVTPGQPASISCKASQDVSTAVAWYLQKPGQPPQLLIHSASYRYTGVPDRFSGSGSGTDFTLKISRVEAEDVGVYYCQQHYSIPLTFGPGTKVDIKR | < 1
4 | humanized anti-QSOX1 antibody H3newK4 (antibody, human IgG1, kappa, V domains shown) VH: QVQLVESGGGLVQPGRSLRLSCTVSGFSLTGYGVNWFRQAPGKGLEWLGMIWGDGRTDYTASVKGRFTISRDGSKSIAYLQMNSLKTEDTAVYYCASDYYGSGSFAYWGQGTLVTVSS VL: DIVMTQSPDSLAVSLGERATINCKASQDVSTAVAWYQQKPGQPPKLLIHSASYRYTGVPDRFSGSGSGTDFTLTISSLQAEDVAVYYCQQHYSIPLTFGQGTRLEIKR | < 1
